Measured values: the supplement of paper PMC5998384

Tests used:
[1] = tested on: HeLa Kyoto; test: melting temperature (median over replicates), in situ; higher = more thermally stable
[2] = tested on: HeLa Kyoto; test: solubility in G1/S (NP-40 vs SDS abundance) (log2 ratio); higher = more soluble; settings: cell cycle stage: G1/S
[3] = tested on: HeLa Kyoto; test: thermal stability score vs G1/S (z-score of summed log2 fold changes over temperatures); higher = more thermally stable than in G1/S
[4] = tested on: HeLa Kyoto; test: solubility change mitosis vs G1/S (difference of NP-40 vs SDS log2 ratios) (log2 ratio difference); higher = more soluble in mitosis
[5] = cell cycle stage: early G1 (4.5 h after nocodazole release)
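Wherever melting temperature (median over replicates), in situ is given: HeLa Kyoto cells synchronized by double thymidine or nocodazole block, proteins quantified by TMT10plex mass spectrometry, three independent biological replicates.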
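Wherever solubility change mitosis vs G1/S (difference of NP-40 vs SDS log2 ratios) is given: synchronized HeLa Kyoto cells (double thymidine block for G1/S, nocodazole release for mitosis), protein amounts in NP-40 versus SDS lysates quantified by mass spectrometry, three biological replicates.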
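Wherever solubility in G1/S (NP-40 vs SDS abundance) is given: HeLa Kyoto cells arrested at G1/S by double thymidine block, proteins quantified by TMT10plex mass spectrometry in mild NP-40 versus SDS extracts, three biological replicates.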
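Wherever thermal stability score vs G1/S (z-score of summed log2 fold changes over temperatures) is given: synchronized HeLa Kyoto cells, proteins quantified by TMT10plex mass spectrometry, three biological replicates, mitosis taken 0.5 h after nocodazole release, G1/S directly after double thymidine block.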

| Substance | melting temperature ([1]; cell cycle stage: G1/S) [°C] | melting temperature ([1]; cell cycle stage: mitosis) [°C] | solubility in G1/S (log2) [2] | thermal stability score [3, 5] | thermal stability score ([3]; cell cycle stage: mitosis) | solubility change mitosis (log2) [4] |
| --- | --- | --- | --- | --- | --- | --- |
| MEVAANCSLRVKRPLLDPRFEGYKLSLEPLPCYQLELDAAVAEVKLRDDQYTLEHMHAFGMYNYLHCDSWYQDSVYYIDTLGRIMNLTVMLDTALGKPREVFRLPTDLTACDNRLCASIHFSSSTWVTLSDGTGRLYVIGTGERGNSASEKWEIMFNEELGDPFIIIHSISLLNAEEHSIATLLLRIEKEELDMKGSGFYVSLEWVTISKKNQDNKKYEIIKRDILRGKSVPHYAAIEPDGNGLMIVSYKSLTFVQAGQDLEENMDEDISEKIKEPLYYWQQTEDDLTVTIRLPEDSTKEDIQIQFLPDHINIVLKDHQFLEGKLYSSIDHESSTWIIKESNSLEISLIKKNEGLTWPELVIGDKQGELIRDSAQCAAIAERLMHLTSEELNPNPDKEKPPCNAQELEECDIFFEESSSLCRFDGNTLKTTHVVNLGSNQYLFSVIVDPKEMPCFCLRHDVDALLWQPHSSKQDDMWEHIATFNALGYVQASKRDKKFFACAPNYSYAALCECLRRVFIYRQPAPMSTVLYNRKEGRQVGQVAKQQVASLETNDPILGFQATNERLFVLTTKNLFLIKVNTEN [NUDCD1] | 51.5 | 52.4 | -0.0356 | 0.569 | 0.543 | -0.234 |
| KDM3B | 48.6 | 49.8 | 0.00792 | 0.937 | 2.62 | -0.108 |
| MGLLSDPVRRRALARLVLRLNAPLCVLSYVAGIAWFLALVFPPLTQRTYMSENAMGSTMVEEQFAGGDRARAFARDFAAHRKKSGALPVAWLERTMRSVGLEVYTQSFSRKLPFPDETHERYMVSGTNVYGILRAPRAASTESLVLTVPCGSDSTNSQAVGLLLALAAHFRGQIYWAKDIVFLVTEHDLLGTEAWLEAYHDVNVTGMQSSPLQGRAGAIQAAVALELSSDVVTSLDVAVEGLNGQLPNLDLLNLFQTFCQKGGLLCTLQGKLQPEDWTSLDGPLQGLQTLLLMVLRQASGRPHGSHGLFLRYRVEALTLRGINSFRQYKYDLVAVGKALEGMFRKLNHLLERLHQSFFLYLLPGLSRFVSIGLYMPAVGFLLLVLGLKALELWMQLHEAGMGLEEPGGAPGPSVPLPPSQGVGLASLVAPLLISQAMGLALYVLPVLGQHVATQHFPVAEAEAVVLTLLAIYAAGLALPHNTHRVVSTQAPDRGWMALKLVALIYLALQLGCIALTNFSLGFLLATTMVPTAALAKPHGPRTLYAALLVLTSPAATLLGSLFLWRELQEAPLSLAEGWQLFLAALAQGVLEHHTYGALLFPLLSLGLYPCWLLFWNVLFWK [GPAA1] | 53.7 | 53.4 | -0.07 | 0.0135 | 0.0397 | -0.232 |
| MVFLPLKWSLATMSFLLSSLLALLTVSTPSWCQSTEASPKRSDGTPFPWNKIRLPEYVIPVHYDLLIHANLTTLTFWGTTKVEITASQPTSTIILHSHHLQISRATLRKGAGERLSEEPLQVLEHPRQEQIALLAPEPLLVGLPYTVVIHYAGNLSETFHGFYKSTYRTKEGELRILASTQFEPTAARMAFPCFDEPAFKASFSIKIRREPRHLAISNMPLVKSVTVAEGLIEDHFDVTVKMSTYLVAFIISDFESVSKITKSGVKVSVYAVPDKINQADYALDAAVTLLEFYEDYFSIPYPLPKQDLAAIPDFQSGAMENWGLTTYRESALLFDAEKSSASSKLGITMTVAHELAHQWFGNLVTMEWWNDLWLNEGFAKFMEFVSVSVTHPELKVGDYFFGKCFDAMEVDALNSSHPVSTPVENPAQIREMFDDVSYDKGACILNMLREYLSADAFKSGIVQYLQKHSYKNTKNEDLWDSMASICPTDGVKGMDGFCSRSQHSSSSSHWHQEGVDVKTMMNTWTLQKGFPLITITVRGRNVHMKQEHYMKGSDGAPDTGYLWHVPLTFITSKSDMVHRFLLKTKTDVLILPEEVEWIKFNVGMNGYYIVHYEDDGWDSLTGLLKGTHTAVSSNDRASLINNAFQLVSIGKLSIEKALDLSLYLKHETEIMPVFQGLNELIPMYKLMEKRDMNEVETQFKAFLIRLLRDLIDKQTWTDEGSVSERMLRSQLLLLACVHNYQPCVQRAEGYFRKWKESNGNLSLPVDVTLAVFAVGAQSTEGWDFLYSKYQFSLSSTEKSQIEFALCRTQNKEKLQWLLDESFKGDKIKTQEFPQILTLIGRNPVGYPLAWQFLRKNWNKLVQKFELGSSSIAHMVMGTTNQFSTRTRLEEVKGFFSSLKENGSQLRCVQQTIETIEENIGWMDKNFDKIRVWLQSEKLERM [ERAP1] | 53.9 | 54.4 | 0.0916 | 3.59 | 5.54 | -0.172 |
| MSRSAAASGGPRRPERHLPPAPCGAPGPPETCRTEPDGAGTMNKLRQSLRRRKPAYVPEASRPHQWQADEDAVRKGTCSFPVRYLGHVEVEESRGMHVCEDAVKKLKAMGRKSVKSVLWVSADGLRVVDDKTKDLLVDQTIEKVSFCAPDRNLDKAFSYICRDGTTRRWICHCFLALKDSGERLSHAVGCAFAACLERKQRREKECGVTAAFDASRTSFAREGSFRLSGGGRPAEREAPDKKKAEAAAAPTVAPGPAQPGHVSPTPATTSPGEKGEAGTPVAAGTTAAAIPRRHAPLEQLVRQGSFRGFPALSQKNSPFKRQLSLRLNELPSTLQRRTDFQVKGTVPEMEPPGAGDSDSINALCTQISSSFASAGAPAPGPPPATTGTSAWGEPSVPPAAAFQPGHKRTPSEAERWLEEVSQVAKAQQQQQQQQQQQQQQQQQQQQAASVAPVPTMPPALQPFPAPVGPFDAAPAQVAVFLPPPHMQPPFVPAYPGLGYPPMPRVPVVGITPSQMVANAFCSAAQLQPQPATLLGKAGAFPPPAIPSAPGSQARPRPNGAPWPPEPAPAPAPELDPFEAQWAALEGKATVEKPSNPFSGDLQKTFEIEL [NUMBL] | 51.9 | 52.3 | 0.205 | 2.8 | 2.05 | -0.00185 |
